Consider one molecule from patent publication US20250136677A1 (ZOETIS SERVICES, published 2025).

The target in test [1] is T1, canine IL-31 protein (Canine_IL31) (canine).
T1 chain: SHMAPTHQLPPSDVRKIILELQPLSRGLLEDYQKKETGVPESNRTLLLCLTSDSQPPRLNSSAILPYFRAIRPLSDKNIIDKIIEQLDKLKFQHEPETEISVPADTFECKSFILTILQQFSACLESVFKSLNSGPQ
The experiment in a line: SPR (Biacore), IL-31 protein as surface capture.

Test [2] has as its target T2, mutant feline IL-31 15H05 protein (Feline_IL31_15H05_mutant) (feline).
T2 construct: also called feline 15H05 mutant; 15H05 IL-31 mutant
T2 chain: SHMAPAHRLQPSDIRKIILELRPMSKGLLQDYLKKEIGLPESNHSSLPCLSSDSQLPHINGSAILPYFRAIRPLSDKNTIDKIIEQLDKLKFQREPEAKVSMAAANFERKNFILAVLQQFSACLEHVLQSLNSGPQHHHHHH
In words: SPR (Biacore), IL-31 protein as surface capture; Biacore KD of Table 1, mutant IL-31 as surface capture; weak binding, about 78 times weaker than on wildtype feline. The method, then: (§1) The affinity with which candidate mAbs bind canine and feline IL-31 was determined using surface plasmon resonance (SPR) on a Biacore system (Biocore Life Sciences (GE Healthcare), Uppsala, Sweden). To avoid affinity differences associated with differential surface preparation that can occur when immobilizing antibodies to surfaces; a strategy was employed where IL-31 was directly conjugated to the surface. Immobilization was obtained by amine coupling 5 μg/mL IL-31 using N-hydroxysuccinimide (NHS)/1-Ethyl-3-(3-dimethylaminopropyl) carbodiimide (EDC) chemistry. Chips were quenched with ethanolamine and the affinity with which all candidate mAbs bound to the immobilized IL-31 was evaluated. All curves were fit to a 1:1 model. […] Results for affinity measurements are described herein.
(§2) Table 1 below describes the results for biacore analysis using multiple species of IL-31 protein as a surface capture.

In the next test the target is T3, human IL-31 (human, UniProt Q6EBC2 24-164).
T3 sequence: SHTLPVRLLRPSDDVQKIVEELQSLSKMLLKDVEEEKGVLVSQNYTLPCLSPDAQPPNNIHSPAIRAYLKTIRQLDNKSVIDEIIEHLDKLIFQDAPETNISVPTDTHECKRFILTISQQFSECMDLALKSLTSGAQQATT
The experiment in a line: SPR (Biacore), IL-31 surface, single antibody concentration.

Test [3] has as its target T4, equine IL-31 protein (Equine_IL31) (equine).
T4 construct: Recombinant equine IL-31
T4 chain: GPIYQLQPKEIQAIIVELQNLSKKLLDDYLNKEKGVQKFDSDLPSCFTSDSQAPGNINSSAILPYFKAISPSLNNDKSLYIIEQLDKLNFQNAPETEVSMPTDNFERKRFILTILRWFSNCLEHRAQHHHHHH
In words: SPR (Biacore), IL-31 protein as surface capture. The method, then:
as §1, §2

Test [4] concerns the target T5, wildtype feline IL-31 protein (Feline_IL31_wildtype) (feline).
T5 construct: Full length feline IL-31 with C-terminal His tag, secreted from ExpiCHO cells; also called fIL-31
T5 chain: T2 chain with A103P, A105D
The experiment in a line: SPR (Biacore), IL-31 protein as surface capture. As to the method: as §1, §2

Test [5] concerns the target T6, mutant feline IL-31 11E12 protein (Feline_IL31_11E12_mutant) (feline).
T6 construct: also called feline 11E12 mutant; 11E12 IL-31 mutant
T6 chain: T2 chain with D81A, I84A, A103P, A105D
The experiment in a line: SPR (Biacore), IL-31 protein as surface capture. The method, then:
as §1, §2

The target of test [6] is T5, wildtype feline IL-31 protein …. In words: cell-based or functional assay.
Test [7] concerns the target T1, canine IL-31 protein (Canine_IL31).

Where a chain is given by its changes, count along the chain named.

B1: mouse anti IL-31 antibody 15H05 (antibody, mouse IgG1, kappa)
heavy: QVQLQQSAAELARPGASVKMSCKTSGYTFTSYTIHWIKQRPGQGLEWIGNINPTSGYTENNQRFKDKTTLTVDRSSNTAYLQLHSLTSEDSAVYFCARWGFKYDGEWSFDVWGAGTTVTVSSKTTPPSVYPLAPGSAAQTNSMVTLGCLVKGYFPEPVTVTWNSGSLSSGVHTFPAVLESDLYTLSSSVTVPSSPRPSETVTCNVAHPASSTKVDKKIVPRDCGCKPCICTVPEVSSVFIFPPKPKDVLTITLTPKVTCVVVDISKDDPEVQFSWFVDDVEVHTAQTQPREEQFNSTFRSVSELPIMHQDWLNGKEFKCRVNSAAFPAPIEKTISKTKGRPKAPQVYTIPPPKEQMAKDKVSLTCMITDFFPEDITVEWQWNGQPAENYKNTQPIMNTNGSYFVYSKLNVQKSNWEAGNTFTCSVLHEGLHNHHTEKSLSHSPGK
light: DIQMNQSPSSLSASLGDTITVTCRASQGISIWLSWYQQKPGNIPKVLINKASNLHIGVPPRFSGSGSGTHFTLTITSLQPEDIATYYCLQSQTYPLTFGGGTKLEINADAAPTVSIFPPSSEQLTSGGASVVCFLNNFYPKDINVKWKIDGSERQNGVLNSWTDQDSKDSTYSMSSTLTLTKDEYERHNSYTCEATHKTSTSPIVKSFNRNEC
notes: Mouse hybridoma antibody, IgG1 kappa; also called Mu-15H05; MU-15H05
With B1, the Kd in test [1] is 0.00191 nM; in test [2], 23.9 nM; in test [3] it was 0.306 nM; in test [4], 0.306 nM; in test [5], 11.5 nM. In addition, in the test with human IL-31, the binding result was “no binding”. For the same molecule, the “Inhibition of IL-31 induced pSTAT3 IC50 (µg/ml), Feline IL-31 on Feline FCWF-4 cells” value in test [6] came out at 6 µg/ml. In test [7], the IC50, inhibition of canine IL-31-induced STAT3 phosphorylation, feline FCWF4 cells stood at 25.7 µg/mL.
